Normalised SPOT signal, Boehringer light units (BLU); mean over the file's lines of this peptide data for 38 molecules are collected here from PMC314469, “Protein Interaction Networks by Proteome Peptide Scanning” (PLoS Biology, 2004).

The target of the first test is T1, amphyphisin SH3 (AMPH_HUMAN), P49418.
T1 chain: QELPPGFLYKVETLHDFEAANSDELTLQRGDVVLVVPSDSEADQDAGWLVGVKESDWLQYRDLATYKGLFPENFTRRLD
The test is described as follows: SPOT array.
On to IPQRPSRPARRPLG [Q9HBL3 242-255], for which the normalised SPOT signal, Boehringer light units (BLU); mean over the file's lines of this peptide was 27600.
ILDTLRRPKPVVDP [Q9NQU5 43-56]: the normalised SPOT signal, Boehringer light units (BLU); mean over the file's lines of this peptide stood at 26.6.
The molecule ALQSPKRPRSPGSN [P78347 665-678] gave a normalised SPOT signal, Boehringer light units (BLU); mean over the file's lines of this peptide of 31.5.
Still for that read-out and setting: with ILSPPRRPRHSQPA [Q8WYU9 180-193] the figure was 344; with IKPFPSRPPVLTQE [Q9P2K1 327-341], 48.4.
The molecule ILGPPRRPSRHDNS [Q9NZN5 600-613] had a normalised SPOT signal, Boehringer light units (BLU); mean over the file's lines of this peptide of 17700.
On the same count and under the same terms, under IMFDLRRPPQNHTY [Q9HCC8 352-365] stands 62.4; under ILAKISRPKKRAKT [P48048 178-191], 123; under IKILPARPIKESEY [Q9P2U9 65-78], 118.
As to ALSLPEKPPRGEQG [O94819 607-621], the normalised SPOT signal, Boehringer light units (BLU); mean over the file's lines of this peptide turned out to be 727.
With IKILLRRPNEKKSK [P32246 223-236], the normalised SPOT signal, Boehringer light units (BLU); mean over the file's lines of this peptide was found to be 37.1.
IGVSPGRPGKSVLF [Q92918 675-688]: the normalised SPOT signal, Boehringer light units (BLU); mean over the file's lines of this peptide was 131.
The same measure, in the same setting: with IIRPPVRPPDPPSR [O60890 736-750] the figure was 3250.
IHSDPLRPRRETSH [P20849 240-253] came in with a normalised SPOT signal, Boehringer light units (BLU); mean over the file's lines of this peptide of 5480.
Molecule IPERPLRPPSEKRA [Q9Y2W3 72-86] showed a normalised SPOT signal, Boehringer light units (BLU); mean over the file's lines of this peptide of 11100.
Consider IKTPPKRPGGRRRG [Q15910 343-356], for which the normalised SPOT signal, Boehringer light units (BLU); mean over the file's lines of this peptide turned out to be 68.6.
On to IKKDLSRPQKPQLV [P31629 870-883], for which the normalised SPOT signal, Boehringer light units (BLU); mean over the file's lines of this peptide was 107.
As to ALRGLVRPHKKRKK [Q9NY93 500-513], the normalised SPOT signal, Boehringer light units (BLU); mean over the file's lines of this peptide is 54.6.
IQFVIKRPELLTEG [O95444 633-646] came in with a normalised SPOT signal, Boehringer light units (BLU); mean over the file's lines of this peptide of 28.5.
ILGSPARPPFSFQP [Q96C66 716-730] came in with a normalised SPOT signal, Boehringer light units (BLU); mean over the file's lines of this peptide of 33.
IQEALKRPMKQKRK [Q92926 129-142]: the normalised SPOT signal, Boehringer light units (BLU); mean over the file's lines of this peptide was 71.7.
IIQELRRPKYTIYF [Q9Y4Z6 82-95] had a normalised SPOT signal, Boehringer light units (BLU); mean over the file's lines of this peptide of 32.
Regarding ILPDFKRPASFGTY [O43844 486-499], the normalised SPOT signal, Boehringer light units (BLU); mean over the file's lines of this peptide amounted to 30.9.
IGYDFRRPLAQLRE [O60288 996-1009] yielded a normalised SPOT signal, Boehringer light units (BLU); mean over the file's lines of this peptide of 41.5.
Regarding IIHVISRPLKAPPA [Q9NRY3 784-797], the normalised SPOT signal, Boehringer light units (BLU); mean over the file's lines of this peptide stood at 83.7.
Regarding IQAPPPRPPKNQGL [Q9BYB6 252-266], the normalised SPOT signal, Boehringer light units (BLU); mean over the file's lines of this peptide was 861.
IGRNIARPWKLIYY [Q15361 592-605]: the normalised SPOT signal, Boehringer light units (BLU); mean over the file's lines of this peptide worked out at 205.
Consider ILPSLSRPARSDQA [O43149 568-581], for which the normalised SPOT signal, Boehringer light units (BLU); mean over the file's lines of this peptide came out at 1320.
The molecule ILLSISRPYKTKPT [Q9Y5J0 40-53] showed a normalised SPOT signal, Boehringer light units (BLU); mean over the file's lines of this peptide of 173.
On the same count and under the same terms, under IQEALKRPIKQKRK [Q9Y635 106-119] stands 92.2; under IKFVIKRPELLTHS [P78347 534-547], 28.9.
The same measure, in the same setting: with ALRWLRRPEDRAFS [Q13472 9-22] the figure was 48.
In the case of IIPSPKRPVKLLSG [P04114 925-938], the normalised SPOT signal, Boehringer light units (BLU); mean over the file's lines of this peptide was 73.4.
On the same count and under the same terms, with IIRQIRRPKNVVLR [O94887 105-118] the figure was 15.8; with IPREPGRPGKGNYW [Q12950 67-80], 59; with IQVAFRRPETPSSG [Q9H8D9 51-64], 55.7.
Consider ILRPPRRPRKPKTL [Q9NYS8 1488-1501], for which the normalised SPOT signal, Boehringer light units (BLU); mean over the file's lines of this peptide turned out to be 7790.
In the case of ILGFPLRPNRGLYQ [O95972 116-129], the normalised SPOT signal, Boehringer light units (BLU); mean over the file's lines of this peptide is 8510.

A further test deals with endophilin SH3 (SH3G2_HUMAN), Q99962. The test is described as follows: SPOT array.
As for IPQRPSRPARRPLG [Q9HBL3 242-255], the normalised SPOT signal, Boehringer light units (BLU); mean over the file's lines of this peptide stood at 84800.
In the case of ILDTLRRPKPVVDP [Q9NQU5 43-56], the normalised SPOT signal, Boehringer light units (BLU); mean over the file's lines of this peptide was determined as 0.
ALQSPKRPRSPGSN [P78347 665-678] came in with a normalised SPOT signal, Boehringer light units (BLU); mean over the file's lines of this peptide of 256.
In the case of ILSPPRRPRHSQPA [Q8WYU9 180-193], the normalised SPOT signal, Boehringer light units (BLU); mean over the file's lines of this peptide is 797.
The same measure, in the same setting: with IKPFPSRPPVLTQE [Q9P2K1 327-341] the figure was 437.
Consider ILGPPRRPSRHDNS [Q9NZN5 600-613], for which the normalised SPOT signal, Boehringer light units (BLU); mean over the file's lines of this peptide amounted to 5800.
With IMFDLRRPPQNHTY [Q9HCC8 352-365], the normalised SPOT signal, Boehringer light units (BLU); mean over the file's lines of this peptide is 230.
The molecule ILAKISRPKKRAKT [P48048 178-191] registered a normalised SPOT signal, Boehringer light units (BLU); mean over the file's lines of this peptide of 58.3.
With IKILPARPIKESEY [Q9P2U9 65-78], the normalised SPOT signal, Boehringer light units (BLU); mean over the file's lines of this peptide was 458.
In turn, ALSLPEKPPRGEQG [O94819 607-621] had a normalised SPOT signal, Boehringer light units (BLU); mean over the file's lines of this peptide of 112.
In turn, IKILLRRPNEKKSK [P32246 223-236] gave a normalised SPOT signal, Boehringer light units (BLU); mean over the file's lines of this peptide of 81.
IGVSPGRPGKSVLF [Q92918 675-688] returned a normalised SPOT signal, Boehringer light units (BLU); mean over the file's lines of this peptide of 128.
On to IIRPPVRPPDPPSR [O60890 736-750], for which the normalised SPOT signal, Boehringer light units (BLU); mean over the file's lines of this peptide is 3430.
Regarding IHSDPLRPRRETSH [P20849 240-253], the normalised SPOT signal, Boehringer light units (BLU); mean over the file's lines of this peptide is 1340.
As for IPERPLRPPSEKRA [Q9Y2W3 72-86], the normalised SPOT signal, Boehringer light units (BLU); mean over the file's lines of this peptide is 7610.
On to IKTPPKRPGGRRRG [Q15910 343-356], for which the normalised SPOT signal, Boehringer light units (BLU); mean over the file's lines of this peptide came out at 628.
As for IKKDLSRPQKPQLV [P31629 870-883], the normalised SPOT signal, Boehringer light units (BLU); mean over the file's lines of this peptide was 96.8.
Take ALRGLVRPHKKRKK [Q9NY93 500-513]: the normalised SPOT signal, Boehringer light units (BLU); mean over the file's lines of this peptide is 108.
As for IQFVIKRPELLTEG [O95444 633-646], the normalised SPOT signal, Boehringer light units (BLU); mean over the file's lines of this peptide was determined as 29.8.
ILGSPARPPFSFQP [Q96C66 716-730] yielded a normalised SPOT signal, Boehringer light units (BLU); mean over the file's lines of this peptide of 1550.
Regarding IQEALKRPMKQKRK [Q92926 129-142], the normalised SPOT signal, Boehringer light units (BLU); mean over the file's lines of this peptide worked out at 109.
In turn, IIQELRRPKYTIYF [Q9Y4Z6 82-95] had a normalised SPOT signal, Boehringer light units (BLU); mean over the file's lines of this peptide of 134.
With ILPDFKRPASFGTY [O43844 486-499], the normalised SPOT signal, Boehringer light units (BLU); mean over the file's lines of this peptide came out at 23.1.
The molecule IGYDFRRPLAQLRE [O60288 996-1009] showed a normalised SPOT signal, Boehringer light units (BLU); mean over the file's lines of this peptide of 205.
IIHVISRPLKAPPA [Q9NRY3 784-797]: the normalised SPOT signal, Boehringer light units (BLU); mean over the file's lines of this peptide was determined as 71.7.
Still for that read-out and setting: under IQAPPPRPPKNQGL [Q9BYB6 252-266] stands 2290.
IGRNIARPWKLIYY [Q15361 592-605] had a normalised SPOT signal, Boehringer light units (BLU); mean over the file's lines of this peptide of 314.
With ILPSLSRPARSDQA [O43149 568-581], the normalised SPOT signal, Boehringer light units (BLU); mean over the file's lines of this peptide amounted to 366.
Same read-out and setting: with ILLSISRPYKTKPT [Q9Y5J0 40-53] the figure was 130; with IQEALKRPIKQKRK [Q9Y635 106-119], 89.8.
On the same count and under the same terms, under IKFVIKRPELLTHS [P78347 534-547] stands 63.7.
ALRWLRRPEDRAFS [Q13472 9-22] came in with a normalised SPOT signal, Boehringer light units (BLU); mean over the file's lines of this peptide of 353.
In turn, IIPSPKRPVKLLSG [P04114 925-938] had a normalised SPOT signal, Boehringer light units (BLU); mean over the file's lines of this peptide of 1060.
The molecule IIRQIRRPKNVVLR [O94887 105-118] showed a normalised SPOT signal, Boehringer light units (BLU); mean over the file's lines of this peptide of 49.2.
IPREPGRPGKGNYW [Q12950 67-80] registered a normalised SPOT signal, Boehringer light units (BLU); mean over the file's lines of this peptide of 32.8.
Still for that read-out and setting: under IQVAFRRPETPSSG [Q9H8D9 51-64] stands 5.6.
Take ILRPPRRPRKPKTL [Q9NYS8 1488-1501]: the normalised SPOT signal, Boehringer light units (BLU); mean over the file's lines of this peptide came out at 1310.
For ILGFPLRPNRGLYQ [O95972 116-129], the normalised SPOT signal, Boehringer light units (BLU); mean over the file's lines of this peptide worked out at 3140.
